Data set [1] addresses phthalyl-L-Asp-L-Phe-OMe (compound XIV).
Data set [2] has as its target T1, phthalyl amidase (Xanthobacter agilis, UniProt P0C2Y0).
T1 construct: 42-aa signal peptide removed
T1 sequence (P0C2Y0 whole entry, looked up): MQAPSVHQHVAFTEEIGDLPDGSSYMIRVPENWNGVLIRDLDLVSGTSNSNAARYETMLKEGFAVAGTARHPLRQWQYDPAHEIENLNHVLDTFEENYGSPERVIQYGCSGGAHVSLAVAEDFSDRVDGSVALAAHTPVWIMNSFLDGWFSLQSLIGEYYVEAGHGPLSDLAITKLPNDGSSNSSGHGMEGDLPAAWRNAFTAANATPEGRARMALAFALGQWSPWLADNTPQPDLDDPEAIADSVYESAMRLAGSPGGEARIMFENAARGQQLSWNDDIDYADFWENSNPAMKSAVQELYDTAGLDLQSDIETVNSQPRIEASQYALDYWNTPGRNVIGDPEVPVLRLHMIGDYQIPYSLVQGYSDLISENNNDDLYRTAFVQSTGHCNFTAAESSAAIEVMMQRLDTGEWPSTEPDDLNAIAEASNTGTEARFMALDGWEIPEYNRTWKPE
Description: Optimum salt concentration. The data set is classed as biochemical. The following applies: 32° C., substrate III. The procedure:
Test reactions were carried out similar to Example 6 except that buffer concentrations ranging from 10 to 200 mM at 32° C. were examined. All other conditions and analyses were the same.

Data set [3] addresses T1, phthalyl amidase. Description: Optimum reaction temperature. Conditions: substrate III, 50 mM potassium phosphate, pH 8.2. The class given is biochemical. The procedure:
Test reactions were carried out similar to Example 5 except that all incubations were performed in 50 mM potassium phosphate buffer at pH 8.2. Solutions of the substrate were pre-incubated for 5 minutes at temperatures between 2° and 60° C. The enzymatic reaction was initiated by the addition of phthalyl amidase and stopped by the addition of 1 ml methanol. Specific activity of the enzyme was determined by monitoring the hydrolysis of III by HPLC as in Example 5.

Data set [4] deals with T1, phthalyl amidase. Put plainly: Stability of phthalyl amidase (ionic strength, pH, temperature). The class given is physicochemical. The procedure:
The stability of phthalyl amidase at pH values ranging from 6-9 was determined as described in Example 5 at 30° C. in both 20 and 200 mM potassium phosphate buffer. […] In 200 mM buffer, the enzyme retained at least 80% of its activity for 100 hours irrespective of the pH of the incubating medium.
The phthalyl amidase enzyme was also tested for stability at varying temperatures. The enzyme was incubated at pH 8.2 in the temperature range of 4°-50° C. for 48 hours in 50 and 200 mM phosphate buffer. […] In 200 mM buffer, 80% of the enzyme activity was retained in temperatures up to 35° C. and 30% of the enzyme activity was retained after 48 hours incubation at 40° C.

Data set [5] addresses T1, phthalyl amidase. Put plainly: Effect of pH on phthalyl amidase activity (substrate III, HPLC). The data set is classed as biochemical. Conditions: 50 mM potassium phosphate, 32° C. The procedure:
The effect of pH on the reaction rate of the analytical scale purified enzyme was determined using phthalamido carbacephem (III) as substrate. [drawing 5]
A typical reaction mixture consisted of 1 ml total volume and contained 0.1 mM III, 0.1 μM phthalyl amidase in 50 mM potassium phosphate buffer (pH 5.5-9.0) at 32° C. for 20 minutes. The reactions were stopped by the addition of 1 ml methanol. After removal of precipitate by centrifugation, an aliquot of the supernatant fraction (typically 30 μ) was monitored for the beta-lactam nucleus and phthalic acid by HPLC using a Zorbax C8 column (0.46×15 cm; MacMod Analytical Inc., Chadds Ford, Pa.). The two reaction products were eluted by a mobile phase constructed as continuous mixed gradients from (a) 1% ACN (acetonitrile)/0.2% TFA (trifluoroacetic acid) and (b) 80% ACN/0.2% TFA as follows: 1) 0% (b), 3 min; 2) 0-50% (b), 0.5 min; 3) 50-100% (b), 3 min; 4) 100% (b), 2.5 min; 5) 100-0% (b), 0.1 min; and 6) 0% (b), 5 min. At a flow rate of 1.5 ml/min, retention times of the beta-lactam nucleus and phthalic acid, as measured at 254 nm, were 2.3 and 7.2 min, respectively.

A value given as a limit tells only on which side of the number the result lay.

B1: phthalyl amidase (mature enzyme, purified from Xanthobacter agilis) (enzyme)
chain: QAPSVHQHVAFTEEIGDLPDGSSYMIRVPENWNGVLIRDLDLVSGTSNSNAARYETMLKEGFAVAGTARHPLRQWQYDPAHEIENLNHVLDTFEENYGSPERVIQYGCSGGAHVSLAVAEDFSDRVDGSVALAAHTPVWIMNSFLDGWFSLQSLIGEYYVEAGHGPLSDLAITKLPNDGSSNSSGHGMEGDLPAAWRNAFTAANATPEGRARMALAFALGQWSPWLADNTPQPDLDDPEAIADSVYESAMRLAGSPGGEARIMFENAARGQQLSWNDDIDYADFWENSNPAMKSAVQELYDTAGLDLQSDIETVNSQPRIEASQYALDYWNTPGRNVIGDPEVPVLRLHMIGDYQIPYSLVQGYSDLISENNNDDLYRTAFVQSTGHCNFTAAESSAAIEVMMQRLDTGEWPSTEPDDLNAIAEASNTGTEARFMALDGWEIPEYNRTWKPE
modifications: N-terminus blocked (attempts to sequence the N-terminus of the purified enzyme failed)
Take B1: in data set [1], the Relative Activity (hydrolysis of the substrate by HPLC) (relative activity (compound III = 100.0)) was determined as 118.

B2: phthalyl amidase: enzyme from Xanthobacter agilis that removes the phthalyl moiety from phthalyl-containing amides (protein)
chain: QAPSVHQHVAFTEEIGDLPDGSSYMIRVPENWNGVLIRDLDLVSGTSNSNAARYETMLKEGFAVAGTARHPLRQWQYDPAHEIENLNHVLDTFEENYGSPERVIQYGCSGGAHVSLAVAEDFSDRVDGSVALAAHTPVWIMNSFLDGWFSLQSLIGEYYVEAGHGPLSDLAITKLPNDGSSNSSGHGMEGDLPAAWRNAFTAANATPEGRARMALAFALGQWSPWLADNTPQPDLDDPEAIADSVYESAMRLAGSPGGEARIMFENAARGQQLSWNDDIDYADFWENSNPAMKSAVQELYDTAGLDLQSDIETVNSQPRIEASQYALDYWNTPGRNVIGDPEVPVLRLHMIGDYQIPYSLVQGYSDLISENNNDDLYRTAFVQSTGHCNFTAAESSAAIEVMMQRLDTGEWPSTEPDDLNAIAEASNTGTEARFMALDGWEIPEYNRTWKPE
On to B2, for which the “Specific Activity” value came to 148 μmol/min/μmol enzyme with phthalyl amidase [2] (K Phosphate buffer 10 mM); 300 μmol/min/μmol enzyme in the data set with phthalyl amidase [2] (K Phosphate buffer 50 mM); 350 μmol/min/μmol enzyme with phthalyl amidase [2] (K Phosphate buffer 100 mM); 360 μmol/min/μmol enzyme with phthalyl amidase [2] (K Phosphate buffer 200 mM); 25 μmol/min/μmol enzyme with phthalyl amidase [2] (NH4 Acetate buffer 10 mM); 50 μmol/min/μmol enzyme with phthalyl amidase [2] (NH4 Acetate buffer 50 mM). The “Specific Activity” value amounted to 75 μmol/min/μmol enzyme in the data set with phthalyl amidase [2] (NH4 Acetate buffer 100 mM); 100 μmol/min/μmol enzyme with phthalyl amidase [2] (NH4 Acetate buffer 200 mM); 73 μmol/min/μmol enzyme with phthalyl amidase [2] (Tris-HCl buffer 10 mM); 230 μmol/min/μmol enzyme with phthalyl amidase [2] (Tris-HCl buffer 50 mM); 275 μmol/min/μmol enzyme with phthalyl amidase [2] (Tris-HCl buffer 100 mM); 300 μmol/min/μmol enzyme in the data set with phthalyl amidase [2] (Tris-HCl buffer 200 mM). Besides, the “Specific Activity” value with phthalyl amidase [5] (pH 7.0, substrate III 0.1 mM) stood at 125.4 μmol/min/μmol enzyme; with phthalyl amidase [5] (pH 7.2, substrate III 0.1 mM), 130.4 μmol/min/μmol enzyme; in the data set with phthalyl amidase [5] (pH 7.4, substrate III 0.1 mM) it was 155.2 μmol/min/μmol enzyme; with phthalyl amidase [5] (pH 7.6, substrate III 0.1 mM) it was 172.5 μmol/min/μmol enzyme; with phthalyl amidase [5] (pH 7.8, substrate III 0.1 mM), 184.2 μmol/min/μmol enzyme; with phthalyl amidase [5] (pH 8.0, substrate III 0.1 mM), 195.3 μmol/min/μmol enzyme. In addition, the “Specific Activity” value was found to be 201.2 μmol/min/μmol enzyme with phthalyl amidase [5] (pH 8.2, substrate III 0.1 mM); 208.0 μmol/min/μmol enzyme with phthalyl amidase [5] (pH 8.4, substrate III 0.1 mM); 181.7 μmol/min/μmol enzyme with phthalyl amidase [5] (pH 8.6, substrate III 0.1 mM); 185.1 μmol/min/μmol enzyme in the data set with phthalyl amidase [5] (pH 8.8, substrate III 0.1 mM); 33.1 μmol/min/μmol enzyme with phthalyl amidase [5] (pH 9.0, substrate III 0.1 mM). In the data set with phthalyl amidase [3], the “enzyme activity below 10° C. and above 50° C. (in words)” value was “Little enzyme activity”. Besides, the “temperature of maximum reaction rate” value with phthalyl amidase [3] came to 34 °C. Further, in the data set with phthalyl amidase [4], the “Optimum ionic strength for stability” value is given as ≥ 200 mM. Also, the “optimum stability pH” value with phthalyl amidase [4] was 8.0±0.4. In addition, the “pH range in which the enzyme is stable” value with phthalyl amidase [4] is reported as 6-9. The “time within which all enzyme activity was lost” value with phthalyl amidase [4] (20 mM potassium phosphate buffer, any pH 6-9, 30° C.) was ≤ 2 h; with phthalyl amidase [4] (50 mM phosphate buffer, pH 8.2, incubation temperature above 40° C.) it was ≤ 48 h. Also, the enzyme activity retained is recorded as 90% in the data set with phthalyl amidase [4] (50 mM phosphate buffer, pH 8.2, temperatures below 25° C., 48 hours); 30% in the data set with phthalyl amidase [4] (200 mM phosphate buffer, pH 8.2, 40° C., 48 hours); “at least 80%” with phthalyl amidase [4] (200 mM potassium phosphate buffer, pH 6-9, 30° C., 100 hours). The “temperature up to which good activity is retained” value with phthalyl amidase [4] (high salt (200 mM)) was “up to 40 °C”; in the data set with phthalyl amidase [4] (low salt (50 mM)), “up to 30 °C”.

Values taken from patent US5451522A, “Genes encoding and method of expressing an enzyme: phthalyl amidase” (priority 1994, dated 1995).
